Source: patent USRE46585 (LABORATOIRE FRANCAIS DU FRACTIONNEMENT ET DES …, dated 2017)
Residue numbers refer to the chain shown, from its start.

B1: C4A_41 (other)
chain: CPPCPAPELLGGPSVFLFPPKPKDTLMISRTPEVTCVVVDVSHEDPEVKFNWYVDGVEVHNAKTKPREEQYNSTYRVVSVLTVLHQDWLDGKEYKCKVSNKALPVPIEKTISKAKGQPREPQVYTLPPSRDELTKNEVSLTCLVKGFYPSDIAVEWESNGQPENNYKTTPPVLDSDGSFFLYSKLTVDKSRWQQGNVFSCSVMHEALHYHYTQKSLSLSPGK
notes: EU numbering
B2: C5A_15 (other)
chain: B1 chain with V78A, E137Q, E157V
notes: EU numbering
B3: M3A_12 (other)
chain: B1 chain with V105A, E137R, N196D, Y209S
notes: EU numbering
B4: M3A_34 (other)
chain: B1 chain with S42N, T82N, D90N, V105A, E137Q, K145R, A153V, Y209N
notes: EU numbering
B5: T3A_11 (other)
chain: B1 chain with P66S, A102V, E137Q
notes: EU numbering
B6: M3A_18 (other)
chain: B1 chain with T82P, D90N, V105A, E137Q, A153V, N196T, Y209N
notes: EU numbering
B7: M3A_26 (other)
chain: B1 chain with V39E, T82P, D90N, V105A, K115E, Q117R, E137Q, A153V, Y209N
notes: EU numbering
B8: T3A_10 (other)
chain: B1 chain with E137Q, N164K
notes: EU numbering
B9: C6A_36 (other)
chain: B1 chain with T82P, V105A, E137Q, E157G, Q194H
notes: EU numbering
B10: M3A_21 (other)
chain: B1 chain with F16L, V39E, T82P, D90N, V105A, E137Q, A153V, N196T, Y209N
notes: EU numbering
B11: C5A_63 (other)
chain: B1 chain with S73N, E137Q
notes: EU numbering
B12: C7A_18 (other)
chain: B1 chain with V39E, D90N, V105A, E137Q, A153V, K189R, N196T
notes: EU numbering
B13: C8A_14 (other)
chain: B1 chain with V80A, D90N, V105A, E137Q, Q161R
notes: EU numbering
B14: M3A_06 (other)
chain: B1 chain with F16L, V39E, D90N, V105A, E137Q, A153T, V172M, Y209N
notes: EU numbering
B15: C5A_44 (other)
chain: B1 chain with V105A, E137Q, N164K
notes: EU numbering
B16: C6A_04 (other)
chain: B1 chain with D90N, V105A, Q117R, E137Q, E157V
notes: EU numbering
B17: T3A_30 (other)
chain: B1 chain with V39E, D90N, V105A, E137Q, A153V, V197A, Y209N
notes: EU numbering
B18: C7A_37 (other)
chain: B1 chain with F16L, V105A, E137Q, N164K
notes: EU numbering
B19: C5A_20 (other)
chain: B1 chain with V105A, E137Q, S190D
notes: EU numbering
B20: C7A_68 (other)
chain: B1 chain with V39E, V105A, E137Q, A153V, N165S, G195R
notes: EU numbering
B21: C7A_02 (other)
chain: B1 chain with V39E, D90N, V105A, E137Q, K145R, A153V
notes: EU numbering
B22: T3A_22 (other)
chain: B1 chain with F16L, V39E, D90N, V105A, E137Q, A153V, Y209S
notes: EU numbering
B23: T3A_16 (other)
chain: B1 chain with F16L, V39E, T82P, D90N, V105A, E137Q, A153V, Y209N
notes: EU numbering
B24: C5A_03 (other)
chain: B1 chain with V39A, V105A, E137Q
notes: EU numbering
B25: C6A_05 (other)
chain: B1 chain with T82A, E137Q
notes: EU numbering
B26: M3A_35 (other)
chain: B1 chain with V39E, V105A, E137Q, P171L, Y209N
notes: EU numbering
B27: C8A_61 (other)
chain: B1 chain with P5T, V39E, D90N, V105A, E137Q, P171L
notes: EU numbering
B28: M3B_04 (other)
chain: B1 chain with F16L, V39E, D90N, V105A, Q117R, E137Q, A153V, Y209N
notes: EU numbering
B29: C7A_13 (other)
chain: B1 chain with F16L, V39E, D90N, V105A, E137Q, A153V, N196T
notes: EU numbering
B30: C5A_19 (other)
chain: B1 chain with V39A, V80A, E137Q
notes: EU numbering
B31: C7A_89 (other)
chain: B1 chain with T82P, D90N, A102T, V105A, E137Q, N164T, N196T
notes: EU numbering
B32: T3A_08 (other)
chain: B1 chain with V39E, D90N, V105A, E137Q, A153V, F179L, Y209N
notes: EU numbering
B33: M3B_23 (other)
chain: B1 chain with F16L, V39E, T82P, D90N, V105A, E137Q, Y209N
notes: EU numbering
B34: C5A_75 (other)
chain: B1 chain with T82N, V105A, E137Q
notes: EU numbering
B35: C7A_43 (other)
chain: B1 chain with V39E, T82P, D90N, V105A, E137Q, A153V, P171S, Y209S
notes: EU numbering
B36: C5A_12 (other)
chain: B1 chain with V105A, N164K
notes: EU numbering
B37: T3A_34 (other)
chain: B1 chain with V39E, D90N, V105A, P127S, E137Q, A153V, Y209N
notes: EU numbering
B38: C8A_41 (other)
chain: B1 chain with V105A, E137Q, E157V, H208P
notes: EU numbering
B39: T3A_15 (other)
chain: B1 chain with V39E, D90N, V105A, E137Q, A153V, T169A, F179L, Y209S
notes: EU numbering
B40: C7A_49 (other)
chain: B1 chain with E137Q, T169A
notes: EU numbering
B41: T3A_13 (other)
chain: B1 chain with V105A, E137Q, V144A
notes: EU numbering
B42: C5A_41 (other)
chain: B1 chain with A102T, E137R
notes: EU numbering
B43: M3A_08 (other)
chain: B1 chain with V39E, T82P, D90N, V105A, E137Q, A153T, V172M, Y209N
notes: EU numbering
B44: C8A_08 (other)
chain: B1 chain with V39A, E137Q
notes: EU numbering
B45: C7A_27 (other)
chain: B1 chain with V39E, T82N, D90N, V105A, E137Q, A153V, V172M
notes: EU numbering
B46: C5A_50 (other)
chain: B1 chain with D45N, V105A, E137Q
notes: EU numbering
B47: T3A_01 (other)
chain: B1 chain with V39E, T82P, D90N, V105A, E137Q, A153V, N196T, Y209N
notes: EU numbering
B48: C6A_35 (other)
chain: B1 chain with T25A, E137Q
notes: EU numbering
B49: C7A_22 (other)
chain: B1 chain with V105A, K109E, E137Q, A153V
notes: EU numbering
B50: C5A_58 (other)
chain: B1 chain with V39E, D90N, V105A, E137Q, A153V, P171L, Y209S
notes: EU numbering
B51: C4A_45 (other)
chain: B1 chain with K21R, H60Y, E137Q
notes: EU numbering

These binders were tested against T1, FcRn-p3 fusion protein (human, UniProt P55899 24-297; P61769 21-119) (assay: phage ELISA pH6).
T1 construct: baculovirus expressed; coated on ELISA wells; not shown: amino terminal part of bacteriophage p3 protein and CVDE protein
T1 sequence (P55899 24-297, chain 1 of 2): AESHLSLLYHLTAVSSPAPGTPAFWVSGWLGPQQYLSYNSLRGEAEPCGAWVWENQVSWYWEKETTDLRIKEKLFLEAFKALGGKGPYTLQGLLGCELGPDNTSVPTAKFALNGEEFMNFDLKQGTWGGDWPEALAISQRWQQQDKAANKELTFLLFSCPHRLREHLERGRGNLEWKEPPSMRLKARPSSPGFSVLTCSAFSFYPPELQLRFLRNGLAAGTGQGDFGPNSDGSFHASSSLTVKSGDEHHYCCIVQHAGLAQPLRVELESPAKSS
T1 sequence (P61769 21-119, chain 2 of 2): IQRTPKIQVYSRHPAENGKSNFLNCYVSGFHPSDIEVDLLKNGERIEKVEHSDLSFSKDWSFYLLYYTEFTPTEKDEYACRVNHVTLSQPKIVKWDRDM
In the case of B1, the Ratio/Fc-H is reported as 3.4 fold.
Binder B2 has a Ratio/Fc-H of 3.4 fold.
B3 showed a Ratio/Fc-H of 1.1 fold.
Work on B4 yielded a Ratio/Fc-H of 1.3 fold.
B5 showed a Ratio/Fc-H of 1.3 fold.
With B6 the Ratio/Fc-H was 1.9 fold.
Binder B7 has a Ratio/Fc-H of 1.8 fold.
With B8 the Ratio/Fc-H was 2.4 fold.
B9 showed a Ratio/Fc-H of 3.4 fold.
B10 showed a Ratio/Fc-H of 2.6 fold.
In the case of B11, the Ratio/Fc-H is reported as 2 fold.
For B12, the Ratio/Fc-H was 2.8 fold.
Binder B13 has a Ratio/Fc-H of 2.4 fold.
Work on B14 yielded a Ratio/Fc-H of 1.8 fold.
In the case of B15, the Ratio/Fc-H is reported as 2.7 fold.
In the case of B16, the Ratio/Fc-H is reported as 2.9 fold.
In the case of B17, the Ratio/Fc-H is reported as 1.1 fold.
With B18 the Ratio/Fc-H was 2.2 fold.
Binder B19 has a Ratio/Fc-H of 2.6 fold.
Work on B20 yielded a Ratio/Fc-H of 3.4 fold.
B21 was tested, and the Ratio/Fc-H was 2.2 fold.
B22 was tested, and the Ratio/Fc-H was 3.8 fold.
Work on B23 yielded a Ratio/Fc-H of 2.3 fold.
B24 showed a Ratio/Fc-H of 2.7 fold.
For B25, the Ratio/Fc-H was 1.9 fold.
B26 was tested, and the Ratio/Fc-H was 1.1 fold.
With B27 the Ratio/Fc-H was 1.7 fold.
Work on B28 yielded a Ratio/Fc-H of 1.7 fold.
For B29, the Ratio/Fc-H was 2.3 fold.
B30 showed a Ratio/Fc-H of 2.9 fold.
In the case of B31, the Ratio/Fc-H is reported as 2.3 fold.
In the case of B32, the Ratio/Fc-H is reported as 1.1 fold.
B33 showed a Ratio/Fc-H of 1.2 fold.
In the case of B34, the Ratio/Fc-H is reported as 2.8 fold.
In the case of B35, the Ratio/Fc-H is reported as 3.6 fold.
B36 showed a Ratio/Fc-H of 3.8 fold.
Work on B37 yielded a Ratio/Fc-H of 1.4 fold.
Binder B38 has a Ratio/Fc-H of 2.7 fold.
In the case of B39, the Ratio/Fc-H is reported as 2.8 fold.
With B40 the Ratio/Fc-H was 1.7 fold.
Work on B41 yielded a Ratio/Fc-H of 1.8 fold.
B42 gave a Ratio/Fc-H of 1.3 fold.
Work on B43 yielded a Ratio/Fc-H of 1.7 fold.
Work on B44 yielded a Ratio/Fc-H of 2 fold.
With B45 the Ratio/Fc-H was 2.6 fold.
B46 gave a Ratio/Fc-H of 2.3 fold.
In the case of B47, the Ratio/Fc-H is reported as 2.4 fold.
For B48, the Ratio/Fc-H was 1.8 fold.
In the case of B49, the Ratio/Fc-H is reported as 1.8 fold.
With B50 the Ratio/Fc-H was 2.8 fold.
In the case of B51, the Ratio/Fc-H is reported as 2.3 fold.

What follows are binders tested against T1, FcRn-p3 fusion protein (assay: phage ELISA pH6 (est.)).
B1 gave a Ratio/FWT of 10.8 fold.
Work on B2 yielded a Ratio/FWT of 10.9 fold.
In the case of B3, the Ratio/FWT is reported as 3.4 fold.
B4 was tested, and the Ratio/FWT was 4.3 fold.
Binder B5 has a Ratio/FWT of 4 fold.
B6 gave a Ratio/FWT of 6.2 fold.
For B7, the Ratio/FWT was 5.6 fold.
With B8 the Ratio/FWT was 7.8 fold.
Work on B9 yielded a Ratio/FWT of 10.9 fold.
With B10 the Ratio/FWT was 8.4 fold.
For B11, the Ratio/FWT was 6.3 fold.
B12 was tested, and the Ratio/FWT was 8.9 fold.
With B13 the Ratio/FWT was 7.6 fold.
Work on B14 yielded a Ratio/FWT of 5.7 fold.
B15 gave a Ratio/FWT of 8.7 fold.
B16 gave a Ratio/FWT of 9.4 fold.
Work on B17 yielded a Ratio/FWT of 3.4 fold.
For B18, the Ratio/FWT was 6.9 fold.
B19 was tested, and the Ratio/FWT was 8.4 fold.
Work on B20 yielded a Ratio/FWT of 10.9 fold.
Binder B21 has a Ratio/FWT of 6.9 fold.
For B22, the Ratio/FWT was 12.2 fold.
B23 was tested, and the Ratio/FWT was 7.4 fold.
Work on B24 yielded a Ratio/FWT of 8.7 fold.
Work on B25 yielded a Ratio/FWT of 6.2 fold.
B26 was tested, and the Ratio/FWT was 3.7 fold.
B27 was tested, and the Ratio/FWT was 5.5 fold.
Binder B28 has a Ratio/FWT of 5.5 fold.
Binder B29 has a Ratio/FWT of 7.4 fold.
In the case of B30, the Ratio/FWT is reported as 9.3 fold.
In the case of B31, the Ratio/FWT is reported as 7.4 fold.
B32 was tested, and the Ratio/FWT was 3.5 fold.
Work on B33 yielded a Ratio/FWT of 3.8 fold.
In the case of B34, the Ratio/FWT is reported as 8.9 fold.
For B35, the Ratio/FWT was 11.5 fold.
For B36, the Ratio/FWT was 12.1 fold.
For B37, the Ratio/FWT was 4.6 fold.
B38 showed a Ratio/FWT of 8.8 fold.
Work on B39 yielded a Ratio/FWT of 8.9 fold.
For B40, the Ratio/FWT was 5.3 fold.
B41 showed a Ratio/FWT of 5.6 fold.
B42 showed a Ratio/FWT of 4.3 fold.
B43 showed a Ratio/FWT of 5.6 fold.
B44 was tested, and the Ratio/FWT was 6.4 fold.
Work on B45 yielded a Ratio/FWT of 8.2 fold.
B46 showed a Ratio/FWT of 7.3 fold.
Binder B47 has a Ratio/FWT of 7.8 fold.
B48 showed a Ratio/FWT of 5.7 fold.
B49 gave a Ratio/FWT of 5.7 fold.
B50 gave a Ratio/FWT of 9.1 fold.
For B51, the Ratio/FWT was 7.2 fold.
